Reference: the supplement of paper PMC10567573

B1: ZER1 (parent)
chain: KEMARKVIEHCSNFKEENMDTSR
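Note: lentivirally expressed fusions sorted by FACS into six bins by GFP to DsRed ratio, PSI derived from sequencing read proportions per bin multiplied by bin number.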

Variants of: B1
Assay: protein stability index of a GFP-peptide fusion (GPS, HEK-293T) (PSI 1-6); higher = more stable
Conditions: c terminus: native
Variant KEMARKVIEHCSNFKESNMDTSR has a protein stability index of 3.29.
For KEMARKVIEHCSNFKEYNMDTSR, the protein stability index was 2.41.
KEMARKVIEHCSNFKEFNMDTSR showed a protein stability index of 2.79.
KEMARKVIEHCSNFKEKNMDTSR showed a protein stability index of 2.84.
KEMARKVIEHCSNFKETNMDTSR gave a protein stability index of 3.45.
KEMARKVIEHCSNFKEWNMDTSR showed a protein stability index of 2.2.
With KEMARKVIEHCSNFKERNMDTSR the protein stability index was 2.21.
KEMARKVIEHCSNFKEMNMDTSR showed a protein stability index of 3.51.
Work on KEMARKVIEHCSNFKEDNMDTSR yielded a protein stability index of 3.63.
KEMARKVIEHCSNFKEGNMDTSR gave a protein stability index of 3.4.
In the case of KEMARKVIEHCSNFKEQNMDTSR, the protein stability index is reported as 3.19.
In the case of KEMARKVIEHCSNFKEENMDFSR, the protein stability index is reported as 3.84.
With KEMARKVIEHCSNFKEENMDVSR the protein stability index was 3.1.
Work on KEMARKVIEHCSNFKEENMDLSR yielded a protein stability index of 3.26.
For KEMARKVIEHCSNFKEENMDQSR, the protein stability index was 3.84.
Variant KEMARKVIEHCSNFKEENMDWSR has a protein stability index of 2.3.
KEMARKVIEHCSNFKEENMDPSR showed a protein stability index of 4.17.
KEMARKVIEHCSNFKEENMDYSR gave a protein stability index of 2.13.
In the case of KEMARKVIEHCSNFKEENMDMSR, the protein stability index is reported as 4.41.
For KEMARKVIEHCSNFKEENMDCSR, the protein stability index was 3.39.
In the case of KEMARKVIEHCSNFKEENMDESR, the protein stability index is reported as 4.98.
KEMARKVIEHCSNFKEENMWTSR showed a protein stability index of 2.5.
In the case of KEMARKVIEHCSNFKEENMPTSR, the protein stability index is reported as 2.46.
With KEMARKVIEHCSNFKEENMQTSR the protein stability index was 2.23.
KEMARKVIEHCSNFKEENMCTSR showed a protein stability index of 2.08.
Variant KEMARKVIEHCSNFKEENMSTSR has a protein stability index of 2.46.
Variant KEMARKVIEHCSNFKEENMNTSR has a protein stability index of 4.59.
KEMARKVIEHCSNFKEENMFTSR showed a protein stability index of 2.98.
For KEMARKVIEHCSNFKEENMTTSR, the protein stability index was 2.99.
Work on KEMARKVIEHCSNFKEENMDTSW yielded a protein stability index of 3.91.
KEMARKVIEHCSNFKEENMDTSP showed a protein stability index of 4.6.
KEMARKVIEHCSNFKEENMDTSN showed a protein stability index of 5.16.
KEMARKVIEHCSNFKEENMDTSC showed a protein stability index of 4.72.
With KEMARKVIEHCSNFKEENMDTSS the protein stability index was 4.84.
With KEMARKVIEHCSNFKEENMDTSG the protein stability index was 5.08.
Work on KEMARKVIEHCSNFKEENMDTSV yielded a protein stability index of 4.76.
Variant KEMARKVIEHCSNFKEENMDTSE has a protein stability index of 5.48.
KEMARKVIEHCSNFKEENMDTST gave a protein stability index of 5.01.
For KEMARKVIEHCSNFKEENMDTSY, the protein stability index was 4.54.
In the case of KEMARKVIEHCSNFKEENMDTSH, the protein stability index is reported as 5.07.
In the case of KEMARKVIEHCSNTKEENMDTSR, the protein stability index is reported as 4.46.
For KEMARKVIEHCSNSKEENMDTSR, the protein stability index was 4.68.
Work on KEMARKVIEHCSNRKEENMDTSR yielded a protein stability index of 4.55.
KEMARKVIEHCSNAKEENMDTSR showed a protein stability index of 4.56.
For KEMARKVIEHCSNKKEENMDTSR, the protein stability index was 4.92.
For KEMARKVIEHCSNQKEENMDTSR, the protein stability index was 4.73.
With KEMARKVIEHCSNVKEENMDTSR the protein stability index was 4.94.
Variant KEMARKVIEHCSNPKEENMDTSR has a protein stability index of 4.26.
For KEMARKVIEHCSNGKEENMDTSR, the protein stability index was 4.69.
Variant KEMARKVIEHCSNDKEENMDTSR has a protein stability index of 5.02.
Work on KEMARKVIEHCSNCKEENMDTSR yielded a protein stability index of 3.91.
With KEMFRKVIEHCSNFKEENMDTSR the protein stability index was 1.9.
KEMGRKVIEHCSNFKEENMDTSR gave a protein stability index of 4.45.
In the case of KEMLRKVIEHCSNFKEENMDTSR, the protein stability index is reported as 2.23.
Work on KEMPRKVIEHCSNFKEENMDTSR yielded a protein stability index of 4.57.
KEMHRKVIEHCSNFKEENMDTSR gave a protein stability index of 4.02.
For KEMNRKVIEHCSNFKEENMDTSR, the protein stability index was 4.21.
Variant KEMYRKVIEHCSNFKEENMDTSR has a protein stability index of 2.89.
Variant KEMDRKVIEHCSNFKEENMDTSR has a protein stability index of 4.48.
KEMARKVIEHCSNFGEENMDTSR gave a protein stability index of 3.7.
KEMARKVIEHCSNFHEENMDTSR gave a protein stability index of 3.52.
KEMARKVIEHCSNFAEENMDTSR showed a protein stability index of 3.31.
For KEMARKVIEHCSNFDEENMDTSR, the protein stability index was 4.24.
Work on KEMARKVIEHCSNFFEENMDTSR yielded a protein stability index of 3.17.
In the case of KEMARKVIEHCSNFCEENMDTSR, the protein stability index is reported as 3.93.
In the case of KEMARKVIEHCSNFMEENMDTSR, the protein stability index is reported as 3.54.
For KEMARKVIEHCSNFLEENMDTSR, the protein stability index was 3.13.
KEMARCVIEHCSNFKEENMDTSR showed a protein stability index of 2.92.
For KEMARLVIEHCSNFKEENMDTSR, the protein stability index was 1.52.
Work on KEMARSVIEHCSNFKEENMDTSR yielded a protein stability index of 2.96.
In the case of KEMARHVIEHCSNFKEENMDTSR, the protein stability index is reported as 3.09.
Work on KEMARPVIEHCSNFKEENMDTSR yielded a protein stability index of 4.47.
With KEMARMVIEHCSNFKEENMDTSR the protein stability index was 2.14.
Variant KEMARRVIEHCSNFKEENMDTSR has a protein stability index of 2.63.
For KEMARKVIEHCSNFKEENMDTLR, the protein stability index was 3.58.
With KEMARKVIEHCSNFKEENMDTMR the protein stability index was 3.43.
In the case of KEMARKVIEHCSNFKEENMDTNR, the protein stability index is reported as 4.12.
In the case of KEMARKVIEHCSNFKEENMDTWR, the protein stability index is reported as 2.97.
In the case of KEMARKEIEHCSNFKEENMDTSR, the protein stability index is reported as 5.27.
Variant KEMARKLIEHCSNFKEENMDTSR has a protein stability index of 1.92.
Work on KEMARKQIEHCSNFKEENMDTSR yielded a protein stability index of 4.87.
For KEMARKSIEHCSNFKEENMDTSR, the protein stability index was 4.98.
With KEMARKGIEHCSNFKEENMDTSR the protein stability index was 5.13.
In the case of KEMARKHIEHCSNFKEENMDTSR, the protein stability index is reported as 1.52.
With KEMANKVIEHCSNFKEENMDTSR the protein stability index was 4.01.
Work on KEMADKVIEHCSNFKEENMDTSR yielded a protein stability index of 4.9.
Work on KEMAVKVIEHCSNFKEENMDTSR yielded a protein stability index of 3.14.
Variant KEMAHKVIEHCSNFKEENMDTSR has a protein stability index of 3.72.
For KEMAAKVIEHCSNFKEENMDTSR, the protein stability index was 4.4.
In the case of KEMATKVIEHCSNFKEENMDTSR, the protein stability index is reported as 3.58.
Variant KEMAMKVIEHCSNFKEENMDTSR has a protein stability index of 3.13.
Variant KEMARKVIEHCSNFKEENADTSR has a protein stability index of 3.68.
KEMARKVIEHCSNFKEENKDTSR showed a protein stability index of 2.81.
Work on KEMARKVIEHCSNFKEENCDTSR yielded a protein stability index of 3.51.
Variant KEMARKVIEHCSNFKEENPDTSR has a protein stability index of 3.58.
KEMARKVLEHCSNFKEENMDTSR showed a protein stability index of 3.13.
For KEMARKVDEHCSNFKEENMDTSR, the protein stability index was 5.19.
